Measured values reported in patent US20240059758A1 (CORAT THERAPEUTICS, published 2024).

Experiments:
[1] = biological target: S1-subunit of the SARS-CoV-2 glycoprotein S (SARS-CoV-2, UniProt P0DTC2 16-685); assay: titration ELISA, IgG on S1
S1-His [2] = biological target: T1, S1-His (SARS-CoV-2, UniProt P0DTC2 16-685); assay: BLI, antibody on Protein A sensor, S1-His in solution
[3] = biological target: receptor binding domain (RBD) of the S1-subunit of SARS-CoV-2 glycoprotein S (SARS-CoV-2, UniProt P0DTC2 319-541); assay: titration ELISA, IgG on RBD
[4] = biological target: T2, SARS-CoV-2 glycoprotein S (spike) on infectious virus (SARS-CoV-2, UniProt P0DTC2 14-1273); assay: cell-based or functional assay
[5] = biological target: T2, SARS-CoV-2 glycoprotein S (spike) on …; assay: cell-based or functional assay; remark: listed apart in the source
S1-His [6] = biological target: T1, S1-His; assay: BLI, antibody on FAB2G capture sensor, S1-His in solution
[7] = biological target: RBD-mFc (Sino Biologicals) (SARS-CoV-2, UniProt P0DTC2 319-541); assay: BLI, RBD-mFc on anti-mouse Fc capture sensor, Fab in solution

B1: STE90-C11 (IgG) (antibody, V domains shown)
VH: QVQLVESGGGLVQPGGSLRLSCAASGLTVSSNYMSWVRQAPGKGLEWVSVIYSGGSTYYADSVKGRFTISRDDSKNTLYLQMNSLRAEDTAVYYCARDVADAFDIWGQGTMVTVSS
VL: DIVMTQSPSFLSASVGDRVTITCRASQGISSYLAWYQQKPGKAPKLLIYAASTLQSGVPSRFSGSGSGTEFTLTISSLQPEDFATYYCQQLNSYPPFTFGPGTKVDIK
B1 showed an EC50 [1] of 0.3 nM, a Kd (S1-His [2]) of 6.53 nM and an EC50 [3] of 0.3 nM. The “Virus neutralization (24-well titration) TCID50 (IgG)” value [4] was 0.56 nM, the “Virus neutralization (96-well titration) TCID50 (IgG)” value [4] was 0.91 nM and the Neutralization [5] was 0.56 nM. For the same binder, the Kd (S1-His [6]) was 1.56 nM.

B2: STE90-C11 (Fab) (Fab, V domains shown)
VH: QVQLVESGGGLVQPGGSLRLSCAASGLTVSSNYMSWVRQAPGKGLEWVSVIYSGGSTYYADSVKGRFTISRDDSKNTLYLQMNSLRAEDTAVYYCARDVADAFDIWGQGTMVTVSS
VL: DIVMTQSPSFLSASVGDRVTITCRASQGISSYLAWYQQKPGKAPKLLIYAASTLQSGVPSRFSGSGSGTEFTLTISSLQPEDFATYYCQQLNSYPPFTFGPGTKVDIK
Binder B2 has a Kd [7] of 8.14 nM.

B3: YU536-D04 (IgG) (antibody, V domains shown)
VH: QVQLVQSGGGLVQPGGSLRLSCAASGLTVSSNYMSWVRQAPGKGLEWVSVIYSGGSTYYADSVKGRFIISRDNSKNTLYLQMNSLRAEDTAVYYCARDLVVMGLDVWGKGTLVTVSS
VL: DIQLTQSPSSLSASVGDRVTITCRASQGISSYLAWYQQKPGKAPKLLIYAASTLQSGVPSRFSGSGSGTDFTLTISSLQPEDFATYYCQQLNSYPITFGQGTKLEIK
In the case of B3, the Kd (S1-His [2]) is reported as 23 nM, the EC50 [3] is reported as 1.1 nM and the “Virus neutralization (24-well titration) TCID50 (IgG)” value [4] is reported as 0.4 nM. The “Virus neutralization (96-well titration) TCID50 (IgG)” value [4] was 0.2 nM, the Neutralization [5] was 0.4 nM and the Kd (S1-His [6]) was 5.49 nM.

B4: YU536-D04 (Fab) (Fab, V domains shown)
VH: QVQLVQSGGGLVQPGGSLRLSCAASGLTVSSNYMSWVRQAPGKGLEWVSVIYSGGSTYYADSVKGRFIISRDNSKNTLYLQMNSLRAEDTAVYYCARDLVVMGLDVWGKGTLVTVSS
VL: DIQLTQSPSSLSASVGDRVTITCRASQGISSYLAWYQQKPGKAPKLLIYAASTLQSGVPSRFSGSGSGTDFTLTISSLQPEDFATYYCQQLNSYPITFGQGTKLEIK
B4 gave a Kd [7] of 17.5 nM.

B5: YU537-H11 (IgG) (antibody, V domains shown)
VH: EVQLLESGGGLIQPGGSLRLSCAASGLTVSSNYMSWVRQAPGKGLEWVSVIYSGGSTYYADSVKGRFTISRDNSKNALYLQMNSLRAEDTAVYYCARGESGSPYGMDVWGQGTLVTVSS
VL: QSVLTQPPSVSAAPGQKVTISCSGSSSNIGNNYVSWYQQLPGTAPKLLIYDTNKRPSGIPDRFSGSKSGTSATLGITGLQTGDEADYYCATWDSSLSVGVFGGGTKLTVL
B5 was tested, and the Kd (S1-His [2]) was 32.5 nM, the EC50 [3] was 1.4 nM and the “Virus neutralization (24-well titration) TCID50 (IgG)” value [4] was 0.47 nM. The “Virus neutralization (96-well titration) TCID50 (IgG)” value [4] was 0.27 nM, the Neutralization [5] was 0.47 nM and the Kd (S1-His [6]) was 11.7 nM.

B6: YU537-H11 (Fab) (Fab, V domains shown)
VH: EVQLLESGGGLIQPGGSLRLSCAASGLTVSSNYMSWVRQAPGKGLEWVSVIYSGGSTYYADSVKGRFTISRDNSKNALYLQMNSLRAEDTAVYYCARGESGSPYGMDVWGQGTLVTVSS
VL: QSVLTQPPSVSAAPGQKVTISCSGSSSNIGNNYVSWYQQLPGTAPKLLIYDTNKRPSGIPDRFSGSKSGTSATLGITGLQTGDEADYYCATWDSSLSVGVFGGGTKLTVL
B6 gave a Kd [7] of 61.1 nM.
